T1: Ep-CAM on the surface of HT-29 human colorectal carcinoma cells (human, UniProt P16422 24-314)
T1 construct: also called Epithelial Cell Adhesion Molecule; Ep-CAM-expressing HT-29 cells
T1 sequence: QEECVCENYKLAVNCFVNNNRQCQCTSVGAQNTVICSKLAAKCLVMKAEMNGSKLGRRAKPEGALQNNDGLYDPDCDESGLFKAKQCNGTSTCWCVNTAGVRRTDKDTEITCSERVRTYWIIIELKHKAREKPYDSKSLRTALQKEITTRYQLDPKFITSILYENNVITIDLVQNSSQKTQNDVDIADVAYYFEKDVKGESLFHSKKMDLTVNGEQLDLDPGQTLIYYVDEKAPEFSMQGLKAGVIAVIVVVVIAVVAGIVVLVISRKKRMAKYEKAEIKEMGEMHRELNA


What was measured:
[1] = target: T1, Ep-CAM on the surface of HT-29 human …; assay: competition with 125I-labelled chimeric ING-1 on HT-29 cells
From the text: (§1) Vectors constructed according to Example 6 encoding human engineered ING-1 light and heavy chain genes, for example, pING1937 (low risk human engineered ING-1) and pING1944 (low plus moderate risk human engineered ING-1) were linearized by XbaI and used to transfect serum-free adapted CHO—K1 followed by selection of G418-resistant transfectants. Protein was purified from shake flask culture supernatants by passage over a protein A column. To evaluate the binding activity of the produced immunoglobulin polypeptides, competition binding assays with the human carcinoma cell line HT-29 were performed. This colorectal carcinoma cell line expresses a molecule known as Ep-CAM on its surface. Ep-CAM is recognized by immunoglobulin polypeptides having the antigen binding specificity of the mouse-human chimeric ING-1 antibody produced by cell line HB 9812 as deposited with the ATCC.
(§2) HTG29 cells were grown to confluency (˜2×10⁵ cells/well) in 96 well plates. Mouse-human chimeric ING-1 was labeled with Na¹²⁵I (Iodo-gen®, Pierce). The competition conditions included in a 100 μl assay volume, 0.1 nM labeled mouse-human chimeric ING-1, 2-fold serial dilutions of unlabeled immunoglobulin polypeptides, for example, as produced by cells transfected with pING1937 and pING1944. […] Labeled cells were removed with NaOH and counted. […]

[2] = target: T1, Ep-CAM on the surface of HT-29 human …; assay: competition with iodinated low risk ING-1 on HT-29 cells
[3] = target: T1, Ep-CAM on the surface of HT-29 human …; assay: competition binding on HT-29 cells
From the text: as §1, §2

Binder | binding result [1] | binding result [2] | other results
human engineered (low risk) ING-1 (antibody, human IgG1, kappa, It carries 6 low risk changes in VL and 13 low risk changes in VH; also called ING-1 (heMab); low risk human engineered ING-1) VL: DIVMTQSALSNPVTLGESGSISCRSSKSLLHSNGITYLYWYLQKPGQSPQLLIYQMSNRASGVPDRFSSSGSGTDFTLKISRVEAEDVGVYYCAQNLELPRTFGQGTKLEMKRTVAAPSVFIFPPSDEQLKSGTASVVCLLNNFYPREAKVQWKVDNALQSGNSQESVTEQDSKDSTYSLSSTLTLSKADYEKHKVYACEVTHQGLSSPVTKSFNRGEC VH: not shown | binds |  | 
modified ING-1 with low risk light chain and low plus moderate risk heavy chain (antibody, human IgG1, kappa) VL: DIVMTQSALSNPVTLGESGSISCRSSKSLLHSNGITYLYWYLQKPGQSPQLLIYQMSNRASGVPDRFSSSGSGTDFTLKISRVEAEDVGVYYCAQNLELPRTFGQGTKLEMKRTVAAPSVFIFPPSDEQLKSGTASVVCLLNNFYPREAKVQWKVDNALQSGNSQESVTEQDSKDSTYSLSSTLTLSKADYEKHKVYACEVTHQGLSSPVTKSFNRGEC VH: not shown |  | binds | 
human engineered (low plus moderate risk) ING-1 (antibody, human IgG1, kappa, Whole IgG built like pING1937 (human kappa and gamma-1 constant regions); It carries 10 low plus moderate risk changes in VL and 20 in VH; also called product of pING1944) VL: DIVMTQSPLSLPVTPGEPGSISCRSSKSLLHSNGITYLYWYLQKPGQSPQLLIYQMSNRASGVPDRFSSSGSGTDFTLKISRVEAEDVGVYYCAQNLELPRTFGQGTKLEMKRTVAAPSVFIFPPSDEQLKSGTASVVCLLNNFYPREAKVQWKVDNALQSGNSQESVTEQDSKDSTYSLSSTLTLSKADYEKHKVYACEVTHQGLSSPVTKSFNRGEC VH: not shown |  |  | binding result [3]: binds
modified ING-1 with low plus moderate risk light chain and low risk heavy chain (antibody, human IgG1, kappa) VL: DIVMTQSPLSLPVTPGEPGSISCRSSKSLLHSNGITYLYWYLQKPGQSPQLLIYQMSNRASGVPDRFSSSGSGTDFTLKISRVEAEDVGVYYCAQNLELPRTFGQGTKLEMKRTVAAPSVFIFPPSDEQLKSGTASVVCLLNNFYPREAKVQWKVDNALQSGNSQESVTEQDSKDSTYSLSSTLTLSKADYEKHKVYACEVTHQGLSSPVTKSFNRGEC VH: not shown |  | binds | 
mouse-human chimeric ING-1 (antibody, human IgG1, kappa, V domains shown, Variable regions of mouse antibody Br-1 with human constant regions; also called mouse-human chimeric ING-1 antibody produced by cell line HB 9812) VH: QIQLVQSGPELKKPGETVKISCKASGYTFTKYGMNWVKQAPGKGLKWMGWINTYTEEPTYGDDFKGRFAFSLETSASTANLQINNLKSEDTATYFCARFGSAVDYWGQGTSVTVSS VL: DIVMTQAAFSNPVTLGTSGSISCRSSKSLLHSNGITYLYWYLQKPGQSPQLLIYQMSNLASGVPDRFSSSGSGTDFTLRISRVEAEDVGVYYCAQNLELPRTFGGGTKLEMKR | binds |  | 
